Among the data in patent US20240124586A1 are EC50 (read off the curve) and Q2 % (events positive for both the CD3+ and the CD19+ cell label) values, retold here.

Assay [1] addresses human C1Q (human) (UniProt P02745). Kind of assay: ELISA, antibody coated on the plate, C1q titrated (the concentration is that of C1q). (In general: In an ELISA, binding on a coated surface is turned into a signal by an enzyme label.)
The target is the same in assay [2]. As to the kind of experiment: ELISA, antibody coated on the plate, C1q titrated (axis: [C1q] nM), anti-C1q-HRP detection.
The target of assay [3] is human CD19 on CD19+ B cell lines (Ramos, Raji) (human) (UniProt P15391). As to the kind of experiment: FACS bridging of pre-labelled Jurkat (CD3+) and Raji (CD19+) cells mixed 1:1, negative control.
For assay [4], the target named is human CD3 on CD3+ Jurkat cells (human) (UniProt P07766). Described as above.
human CD3 on CD3+ Jurkat cells (human), sequence (P07766 23-207, chain 1 of 3): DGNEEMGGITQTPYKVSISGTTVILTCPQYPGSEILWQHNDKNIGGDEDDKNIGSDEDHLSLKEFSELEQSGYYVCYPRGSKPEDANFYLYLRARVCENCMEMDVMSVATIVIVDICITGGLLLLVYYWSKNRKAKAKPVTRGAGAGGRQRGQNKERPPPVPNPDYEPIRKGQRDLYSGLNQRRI
human CD3 on CD3+ Jurkat cells (human), sequence (P09693 23-182, chain 2 of 3, further chain): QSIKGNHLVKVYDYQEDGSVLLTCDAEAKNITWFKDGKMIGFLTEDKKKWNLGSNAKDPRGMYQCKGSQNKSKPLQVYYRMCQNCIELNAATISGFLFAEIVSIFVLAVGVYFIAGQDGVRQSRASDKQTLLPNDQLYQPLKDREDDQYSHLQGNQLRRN
human CD3 on CD3+ Jurkat cells (human), sequence (P04234 22-171, chain 3 of 3, further chain): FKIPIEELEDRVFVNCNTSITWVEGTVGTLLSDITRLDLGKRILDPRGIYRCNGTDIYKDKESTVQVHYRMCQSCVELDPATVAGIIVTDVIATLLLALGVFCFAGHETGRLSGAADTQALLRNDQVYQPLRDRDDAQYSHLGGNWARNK

human C1Q (human), sequence (P02745 23-245 limits assumed, chain 1 of 3): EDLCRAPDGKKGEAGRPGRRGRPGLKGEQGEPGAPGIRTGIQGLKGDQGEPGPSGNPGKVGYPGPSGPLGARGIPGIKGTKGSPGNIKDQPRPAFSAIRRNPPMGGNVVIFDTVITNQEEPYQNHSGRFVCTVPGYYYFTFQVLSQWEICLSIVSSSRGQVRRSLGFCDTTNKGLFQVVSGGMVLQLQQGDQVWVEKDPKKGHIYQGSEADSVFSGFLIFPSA
human C1Q (human), sequence (P02746 28-253 limits assumed, chain 2 of 3, further chain): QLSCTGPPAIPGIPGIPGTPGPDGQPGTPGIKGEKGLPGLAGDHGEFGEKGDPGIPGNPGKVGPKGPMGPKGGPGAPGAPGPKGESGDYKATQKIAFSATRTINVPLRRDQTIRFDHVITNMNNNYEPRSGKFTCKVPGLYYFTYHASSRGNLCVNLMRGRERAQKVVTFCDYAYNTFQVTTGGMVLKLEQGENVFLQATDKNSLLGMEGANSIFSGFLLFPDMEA
human C1Q (human), sequence (P02747 29-245 limits assumed, chain 3 of 3, further chain): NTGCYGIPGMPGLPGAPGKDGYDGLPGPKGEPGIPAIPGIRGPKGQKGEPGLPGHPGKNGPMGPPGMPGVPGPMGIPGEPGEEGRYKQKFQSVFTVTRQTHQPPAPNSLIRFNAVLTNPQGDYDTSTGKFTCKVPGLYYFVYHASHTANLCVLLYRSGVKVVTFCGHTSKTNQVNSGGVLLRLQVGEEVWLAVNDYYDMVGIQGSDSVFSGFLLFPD
human CD19 on CD19+ B cell lines (Ramos, Raji) (human), sequence (P15391 20-556): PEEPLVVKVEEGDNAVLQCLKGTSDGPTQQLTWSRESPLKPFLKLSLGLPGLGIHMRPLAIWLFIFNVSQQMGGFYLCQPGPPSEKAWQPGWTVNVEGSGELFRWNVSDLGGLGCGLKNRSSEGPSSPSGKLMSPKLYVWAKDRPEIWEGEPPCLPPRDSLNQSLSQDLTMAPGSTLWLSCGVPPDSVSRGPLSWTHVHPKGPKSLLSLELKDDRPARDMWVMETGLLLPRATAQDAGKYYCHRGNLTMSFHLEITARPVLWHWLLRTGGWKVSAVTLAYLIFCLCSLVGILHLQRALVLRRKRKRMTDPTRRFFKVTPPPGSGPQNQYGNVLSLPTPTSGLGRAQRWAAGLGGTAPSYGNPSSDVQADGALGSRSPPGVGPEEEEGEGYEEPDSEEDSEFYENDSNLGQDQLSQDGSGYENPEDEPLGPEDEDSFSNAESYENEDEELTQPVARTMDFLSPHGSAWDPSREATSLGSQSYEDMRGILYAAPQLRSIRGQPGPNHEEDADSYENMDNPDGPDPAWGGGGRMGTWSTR

What is called EC50 (read off the curve) is the concentration at which the effect is half-maximal. Regarding control human IgG1 antibody, the half-maximal effective concentration (EC50 (read off the curve)) in assay [1] and in assay [2] was 30 nM each time.

Regarding irrelevant IgG (antibody), the Q2 % (events positive for both the CD3+ and the CD19+ cell label) in assay [3] and in assay [4] was 4.91% throughout.
